Measurements: patent US20100137420

How the values were obtained:
recombinant cystatin C = target: T1, recombinant cystatin C
T1 chain: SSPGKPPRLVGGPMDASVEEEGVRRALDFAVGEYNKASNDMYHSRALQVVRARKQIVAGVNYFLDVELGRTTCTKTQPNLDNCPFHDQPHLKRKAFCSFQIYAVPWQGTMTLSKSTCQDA

[1] = target: cathepsin B (from THP-1 cell lysates), P07858

B1: MMP-2 (protein)
chain: YNFFPRKPKWDKNQITYRIIGYTPDLDPETVDDAFARAFQVWSDVTPLRFSRIHDGEADIMINFGRWEHGDGYPFDGKDGLLAHAFAPGTGVGGDSHFDDDELWTLGEGQVVRVKYGNADGEYCKFPFLFNGKEYNSCTDTGRSDGFLWCSTTYNFEKDGKYGFCPHEALFTMGGNAEGQPCKFPFRFQGTSYDSCTTEGRTDGYRWCGTTEDYDRDKKYGFCPETAMSTVGGNSEGAPCVFPFTFLGNKYESCTSAGRSDGKMWCATTANYDDDRKWGFCPDQGYSLFLVAAHEFGHAMGLEHSQDPGALMAPIYTYTKNFRLSQDDIKGIQELYGASPDIDLGTGPTPTLGPVTPEICKQDIVFDGIAQIRGEIFFFKDRFIWRTVTPRDKPMGPLLVATFWPELPEKIDAVYEAPQEEKAVFFAGNEYWIYSASTLERGYPKPLTSLGLPPDVQRVDAAFNWSKNKKTYIFAGDKFWRYNEVKKKMDPGFPKLIADAWNAIPDNLDAVVDLQGGGHSYFFKGAYYLKLENQSLKSVKFGSIKSDWLGC
cleavage of recombinant cystatin C (recombinant cystatin C): MMP-2 cleaved cystatin C at three unique sites | cathepsin B activity (fluorogenic Ac-Arg-Arg-AFC assay) [1]: Cathepsin D and MMP-2 alone had no effect on cathepsin B activity
